PMC5929992 (Science signaling, 2016)
Non-standard residues stand in square brackets, D forms with d. No end group written: not given here. pY = N[C@@H](Cc1ccc(OP(=O)(O)O)cc1)C(=O)O

Columns and labels:
Test in all cases: SPR
[1] = target: Biotinylated CD28CD 25-mer peptide (residues 194 to 218) phosphorylated at Tyr207 (mouse)
[2] = target: Lck SH2 domain (residues 122 to 226) (mouse, UniProt P06240 122-226)
[3] = target: Murine full-length Lck (amino acid residues 6 to 509) (mouse, UniProt P06240 6-509, phosphotyrosine at 505)
Murine full-length Lck (amino acid residues 6 to 509), sequence (P06240 6-509): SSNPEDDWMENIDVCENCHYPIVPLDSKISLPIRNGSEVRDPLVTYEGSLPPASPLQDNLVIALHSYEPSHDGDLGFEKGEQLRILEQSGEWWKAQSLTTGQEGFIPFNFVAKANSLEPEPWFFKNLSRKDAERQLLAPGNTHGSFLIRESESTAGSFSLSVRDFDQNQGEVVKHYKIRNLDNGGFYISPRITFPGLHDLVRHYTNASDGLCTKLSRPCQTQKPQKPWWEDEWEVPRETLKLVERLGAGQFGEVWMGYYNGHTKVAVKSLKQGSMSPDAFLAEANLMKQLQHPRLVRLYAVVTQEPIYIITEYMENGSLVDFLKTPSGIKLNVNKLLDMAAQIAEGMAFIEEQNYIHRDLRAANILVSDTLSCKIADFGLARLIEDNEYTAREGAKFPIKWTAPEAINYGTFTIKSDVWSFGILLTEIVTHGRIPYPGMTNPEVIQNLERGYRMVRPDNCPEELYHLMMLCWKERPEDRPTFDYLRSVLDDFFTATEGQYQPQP

Lck SH2 domain (residues 122 to 226), sequence (P06240 122-226): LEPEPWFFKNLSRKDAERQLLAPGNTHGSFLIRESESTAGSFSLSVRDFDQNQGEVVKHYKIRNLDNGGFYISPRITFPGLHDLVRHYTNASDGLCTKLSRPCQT

Row | Kd [3] [µM] | Molecule | also measured
1 |  | Lck SH2 domain (residues 122 to 226) (from UniProt P06240 122-226) (domain or fragment) | Kd [1]: 10 µM
2 |  | PRRPGLTRKPYQA[pY]AAARDFAAYRP (peptide, UniProt P31041 194-218, looked up, also: biotinylated, position not given here) [Biotinylated CD28CD 25-mer peptide phosphorylated at Tyr207, double mutant P206A/P209A] | Kd [2]: 63.7 µM
3 | 0.199 | CNSRRNRLLQSDYMNMTPRRPGLTRKPYQPYAPARDFAAYRP (domain or fragment, mouse, disulfide between the added N-terminal cysteines of the two chains (oxidized with 1 mM GSSG)) [CD28WT cytoplasmic domain (CD28CD), disulfide-linked dimer] | 
4 | 0.187 | CNSRRNRLLQSDYMNMTPRRPGLTRKPYQAYAAARDFAAYRP (domain or fragment, mouse, disulfide between the added N-terminal cysteines of the two chains (oxidized with 1 mM GSSG)) [CD28 Mut5 cytoplasmic domain, disulfide-linked dimer] | 
